Binding result and Kd data for 3 molecules are collected here from patent US20030027180, “Nucleic acid shuffling” (published 2003).

The target of data set [1] is T1, streptavidin (UniProt P22629 P22629:25-183). Kind of data set: filter; affinity comparable to error-prone PCR evolved sequences; no own Kd printed. The conditions noted are these: tags: Sigma; chain copies: 4; stem-loop predicted by Mfold. The method, then: (§1) Binding affinity assays: Affinities for streptavidin were measured using a radioactive filter binding assay. Pools or individual clones were amplified by PCR. One pmol was radiolabeled with 15 units T4 PNK and 10 μCi γ-³²P ATP (NEN) in T4 PNK buffer at 37° C., 1 h. Labeled DNA was extracted twice with phenol-chloroform and purified twice by gel filtration to remove ATP. The DNA was then denatured in water at 95° C. for 5 min together with 2 μg human genomic DNA (to block nonspecific DNA binding) per 5 fmol labeled DNA, and chilled in ice water for 5 mins. 5 fmol of labeled DNA plus 2 μg unlabeled human genomic DNA was added to varying amounts of streptavidin (0 to 1024 nM) in 50 μL of 100 mM NaCl, 50 mM Tris-Cl pH 8.0, 5 mM MgCl₂ (“assay buffer”), giving a final concentration of labeled DNA of 0.1 nM. The DNA and streptavidin were incubated at room temperature for 30 minutes. A multiscreen-HA 96 well nitrocellulose filter plate (Millipore), which retains protein-DNA complexes much better than free DNA, was pre-washed with 125 μL assay buffer then loaded with each assay sample. The samples were rapidly filtered on a vacuum manifold and the membranes washed twice with 250 uL of assay buffer. The membrane for each well was punched out from the plate using a stylus and the bound radioactive label quantitated by phosphorimager together with 1 fmol of unreacted probe.

Data set [2] addresses T1, streptavidin. In words: filter; no streptavidin affinity. Particulars: tags: Sigma; chain copies: 4. Here is the method: as §1
Data set [3] concerns the target T1, streptavidin. In words: filter; 100 mM NaCl, 50 mM Tris pH 8.0, 5 mM MgCl2, room temperature, human genomic DNA competitor. Particulars: tags: Sigma; chain copies: 4; label: 5'-32P. Here is the method:
as §1

T1 sequence (P22629 25-183, one chain of several): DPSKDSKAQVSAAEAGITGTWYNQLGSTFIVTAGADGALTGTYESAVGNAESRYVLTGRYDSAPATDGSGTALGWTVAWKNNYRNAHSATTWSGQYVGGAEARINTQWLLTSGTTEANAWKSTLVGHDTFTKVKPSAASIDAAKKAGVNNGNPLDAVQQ

B1: minimal 40-mer (ssDNA)
DNA: TCTGTGAGACGACGCACCGGTCGCAGGTTTTGTCTCACAG
As for B1, the binding result with streptavidin [1] is “binds”.

B2: complement strand of minimal 40-mer (ssDNA)
DNA: CTGTGAGACAAAACCTGCGACCGGTGCGTCGTCTCACAGA
With B2, the binding result in the data set with streptavidin [2] is “no binding”.

B3: 13x16 #1 (ssDNA)
DNA: GAAAACTGCTCATATGATTGATTAGCCCGCTGCTCGTCCAAATGACGGCTCAGCTCTGTATTTTTAGCGTCTGTGAGACAGAACCTGCGACCGGTGCGTCGTCTCACAGTCTACTGTATCTTCGCGTACCTTAGGTTTACCCGCTGCTCGTCCAAATGACGGCTCTCTGTGAGACAAAACCTGCGACCGGTGCGTCGTCTCACAGTAAGAGGGTTCTTGGATA
The term Kd denotes a measure of binding affinity in units of concentration. Low readings indicate a tighter complex, high ones a looser complex. In the case of B3, binding with streptavidin [3] was put at a Kd of 4.7 nM.
